Experimental data as given in patent US20120165503A1 (Merck Sharp & Dohme, published 2012).
*1 amine or outer side, *2 acyl side, *3 side chain or, on linkers, in order; H or OH if unused. Where no end group is shown, it is not given here. Side-chain parts run from the residue outwards. [ ]: non-standard residue; d: D form. The star is where a group is joined. (mPEG)2 40 kDa = C3 = Cys(mPEG)240kDa, branched (mPEG)2, 40 kDa; d(γGlu) = O=C(O)[C@@H](CCC(=O)[*:2])N[*:1]; γGlu = O=C(O)[C@H](CCC(=O)[*:2])N[*:1]; Palmitoyl = CCCCCCCCCCCCCCCC(=O)*; Aib = CC(C)(N)C(=O)O

Key:
Experiment in all cases: cell-based or functional assay
human GLP-1 receptor [1] = molecular target: T1, human GLP-1 receptor (human, UniProt P43220 24-463)
human glucagon receptor [2] = molecular target: T2, human glucagon receptor (human, UniProt P47871 26-477)
human GLP-1 receptor [3] = molecular target: T1, human GLP-1 receptor; remark: listed apart in the source
human glucagon receptor [4] = molecular target: T2, human glucagon receptor; remark: listed apart in the source

T2 sequence (P47871 26-477): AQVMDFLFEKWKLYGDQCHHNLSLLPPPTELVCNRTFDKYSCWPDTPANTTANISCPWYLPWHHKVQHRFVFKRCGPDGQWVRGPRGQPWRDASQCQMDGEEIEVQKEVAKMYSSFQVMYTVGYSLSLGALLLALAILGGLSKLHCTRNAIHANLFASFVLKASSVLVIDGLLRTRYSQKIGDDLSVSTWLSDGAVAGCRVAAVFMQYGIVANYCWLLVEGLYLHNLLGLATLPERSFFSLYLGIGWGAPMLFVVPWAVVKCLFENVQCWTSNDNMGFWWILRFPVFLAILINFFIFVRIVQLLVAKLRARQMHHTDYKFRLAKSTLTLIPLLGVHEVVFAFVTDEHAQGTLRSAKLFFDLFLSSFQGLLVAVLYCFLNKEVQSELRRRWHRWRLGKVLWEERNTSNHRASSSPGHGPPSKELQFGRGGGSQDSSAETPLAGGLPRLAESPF

GLP-1R EC50 (human GLP-1 receptor [1])	% Activation of GCGR (human glucagon receptor [2])	GCGR EC50 (human glucagon receptor [2])	hGLP-1R EC50 (human GLP-1 receptor [3])	hGCGR EC50 (human glucagon receptor [4])	Binder
–	–	–	0.034 nM	3 pM	H[dS]QGTFTSDK([γGlu-γGlu-Palmitoyl])SKYLD[Aib]RRAQDFVQWLMNTE[γGlu]-NH2 (N-terminus assumed; SMILES CCCCCCCCCCCCCCCC(=O)N[C@@H](CCC(=O)N[C@@H](CCC(=O)NCCCC[C@H](NC(=O)[C@H](CC(=O)O)NC(=O)[C@H](CO)NC(=O)[C@@H](NC(=O)[C@H](Cc1ccccc1)NC(=O)[C@@H](NC(=O)CNC(=O)[C@H](CCC(N)=O)NC(=O)[C@@H](CO)NC(=O)[C@@H](N)Cc1c[nH]cn1)[C@@H](C)O)[C@@H](C)O)C(=O)N[C@@H](CO)C(=O)N[C@@H](CCCCN)C(=O)N[C@@H](Cc1ccc(O)cc1)C(=O)N[C@@H](CC(C)C)C(=O)N[C@@H](CC(=O)O)C(=O)NC(C)(C)C(=O)N[C@@H](CCCNC(=N)N)C(=O)N[C@@H](CCCNC(=N)N)C(=O)N[C@@H](C)C(=O)N[C@@H](CCC(N)=O)C(=O)N[C@@H](CC(=O)O)C(=O)N[C@@H](Cc1ccccc1)C(=O)N[C@H](C(=O)N[C@@H](CCC(N)=O)C(=O)N[C@@H](Cc1c[nH]c2ccccc12)C(=O)N[C@@H](CC(C)C)C(=O)N[C@@H](CCSC)C(=O)N[C@@H](CC(N)=O)C(=O)N[C@H](C(=O)N[C@@H](CCC(=O)O)C(=O)N[C@@H](CCC(N)=O)C(=O)O)[C@@H](C)O)C(C)C)C(=O)O)C(=O)O) [MM102]
115 nM	78%	75.3 nM	–	–	HSQGTFTSDYSKYLDSRRAQDFVQWLMNTKRNRNNIAC (D-Ser at position 2; C1 = Cys(mPEG)5kDa at position 38; C-terminal amide) [OXM33]
195 nM	61%	616 nM	–	–	HSQGTFTSDYSKYLDSRRAQDFVQWLMNTKRNRNNIAC (D-Ser at position 2; C2 = Cys(mPEG)20kDa at position 38; C-terminal amide) [OXM34]
6 nM	46%	> 1000 nM	–	–	HXQGTFTSDYSKYLDSRRAQDFVQWLMNTKRNRNNIAC (Aib at position 2; C3 = Cys(mPEG)240kDa (branched (mPEG)2, 40 kDa) at position 38; C-terminal amide) [OXM69]
7.4 nM	66%	> 1000 nM	–	–	HXQGTFTSDYSKYLDSRRAQDFVQWLMNTKRNRNNIAC (not fully specified; Aib at position 2; methionine sulfoxide at position 27; C3 = Cys(mPEG)240kDa (40 kDa) at position 38; C-terminal amide) [OXM99]
–	–	–	0.026 nM	5 pM	H[dS]QGTFTSDK([γGlu-γGlu-Palmitoyl])SKYLD[Aib]RRAQDFVQWLMNT[dK][γGlu]-NH2 (N-terminus assumed; SMILES CCCCCCCCCCCCCCCC(=O)N[C@@H](CCC(=O)N[C@@H](CCC(=O)NCCCC[C@H](NC(=O)[C@H](CC(=O)O)NC(=O)[C@H](CO)NC(=O)[C@@H](NC(=O)[C@H](Cc1ccccc1)NC(=O)[C@@H](NC(=O)CNC(=O)[C@H](CCC(N)=O)NC(=O)[C@@H](CO)NC(=O)[C@@H](N)Cc1c[nH]cn1)[C@@H](C)O)[C@@H](C)O)C(=O)N[C@@H](CO)C(=O)N[C@@H](CCCCN)C(=O)N[C@@H](Cc1ccc(O)cc1)C(=O)N[C@@H](CC(C)C)C(=O)N[C@@H](CC(=O)O)C(=O)NC(C)(C)C(=O)N[C@@H](CCCNC(=N)N)C(=O)N[C@@H](CCCNC(=N)N)C(=O)N[C@@H](C)C(=O)N[C@@H](CCC(N)=O)C(=O)N[C@@H](CC(=O)O)C(=O)N[C@@H](Cc1ccccc1)C(=O)N[C@H](C(=O)N[C@@H](CCC(N)=O)C(=O)N[C@@H](Cc1c[nH]c2ccccc12)C(=O)N[C@@H](CC(C)C)C(=O)N[C@@H](CCSC)C(=O)N[C@@H](CC(N)=O)C(=O)N[C@H](C(=O)N[C@H](CCCCN)C(=O)N[C@@H](CCC(N)=O)C(=O)O)[C@@H](C)O)C(C)C)C(=O)O)C(=O)O) [MM103]

Further lines, the binder ahead of its results:

Binder	GLP-1R EC50 (human GLP-1 receptor [1])	% Activation of GCGR (human glucagon receptor [2])	GCGR EC50 (human glucagon receptor [2])	hGLP-1R EC50 (human GLP-1 receptor [3])	hGCGR EC50 (human glucagon receptor [4])
H[Aib]QGTFTSDYSKYLDSRRAC((mPEG)2 40 kDa)DFVQWLMNTKRNRNNIA-NH2 [OXM103]	6.2 nM	75%	203 nM	–	–
HXQGTFTSDYSKYLDSRRAQDFVCWLMNTKRNRNNIA (Aib at position 2; C3 = Cys(mPEG)240kDa (40 kDa) at position 24; methionine sulfoxide at position 27; C-terminal amide) [OXM107]	29.7 nM	30%	> 1000 nM	–	–
HXQGTFTSDYSKYLDSRRAQDFVQWLMNTKRNRNNIAC (α-aminoisobutyric acid (Aib) at position 2; C1 = Cys(mPEG)5kDa at position 38; C-terminal amide) [OXM67]	5.8 nM	73%	138 nM	–	–
HXQGTFTSDYSKYLDSRRAQDFVQWLMNTKRNRNNIAC (Aib at position 2; methionine sulfoxide at position 27; C6 = Cys(mPEG)260kDa (60 kDa) at position 38; C-terminal amide) [OXM100]	22.5 nM	22%	> 1000 nM	–	–
HSQGTFTSDYSKYLDSRRAQDFVQWLMNTKRNRNNIAC (D-Ser at position 2; C3 = Cys(mPEG)240kDa (branched (mPEG)2, 40 kDa) at position 38; C-terminal amide) [OXM35]	716 nM	71%	142 nM	–	–
HXQGTFTSDYSKYLDSRRAQDFVQWLMNTKRNRNNIAC (Aib at position 2; C2 = Cys(mPEG)20kDa at position 38; C-terminal amide) [OXM68]	8.3 nM	58%	601 nM	–	–
H[Aib]QGTFTSDYSKYLDSRRAQC((mPEG)2 40 kDa)FVQWLMNTKRNRNNIA-NH2 [OXM105]	28.5 nM	21%	648 nM	–	–
H[dS]QGTFTSDK([γGlu-γGlu-Palmitoyl])SKYLD[Aib]RRAQDFVQWLMNTE[d(γGlu)]-NH2 (N-terminus assumed; SMILES CCCCCCCCCCCCCCCC(=O)N[C@@H](CCC(=O)N[C@@H](CCC(=O)NCCCC[C@H](NC(=O)[C@H](CC(=O)O)NC(=O)[C@H](CO)NC(=O)[C@@H](NC(=O)[C@H](Cc1ccccc1)NC(=O)[C@@H](NC(=O)CNC(=O)[C@H](CCC(N)=O)NC(=O)[C@@H](CO)NC(=O)[C@@H](N)Cc1c[nH]cn1)[C@@H](C)O)[C@@H](C)O)C(=O)N[C@@H](CO)C(=O)N[C@@H](CCCCN)C(=O)N[C@@H](Cc1ccc(O)cc1)C(=O)N[C@@H](CC(C)C)C(=O)N[C@@H](CC(=O)O)C(=O)NC(C)(C)C(=O)N[C@@H](CCCNC(=N)N)C(=O)N[C@@H](CCCNC(=N)N)C(=O)N[C@@H](C)C(=O)N[C@@H](CCC(N)=O)C(=O)N[C@@H](CC(=O)O)C(=O)N[C@@H](Cc1ccccc1)C(=O)N[C@H](C(=O)N[C@@H](CCC(N)=O)C(=O)N[C@@H](Cc1c[nH]c2ccccc12)C(=O)N[C@@H](CC(C)C)C(=O)N[C@@H](CCSC)C(=O)N[C@@H](CC(N)=O)C(=O)N[C@H](C(=O)N[C@@H](CCC(=O)O)C(=O)N[C@H](CCC(N)=O)C(=O)O)[C@@H](C)O)C(C)C)C(=O)O)C(=O)O) [MM113]	–	–	–	0.023 nM	6 pM
